# Experimental data as given in US10000749B2, “Valencene synthase polypeptides, encoding nucleic acid molecules and uses thereof” (Evolva, Inc., priority 2013, dated 2018).
# Entries after “also recorded” stand apart in the source; their conditions may differ.
# Columns and labels:
# ticks and mosquitoes = conditions: against ticks and mosquitoes; cited from earlier work
# [1] = system: Saccharomyces cerevisiae strain ALX11-30; experiment: Shake flask assay of cells expressing valencene synthase; type: cell-based; conditions: FIG. 7, cells expressing the synthase
# Method: Seed cultures were started in 250 mL flasks by inoculating 15 mL of SD or SDE medium (for ALX11-30 and ALX7-95 strains, respectively) with freshly growing colonies of the 7 strains shown in Table 5 above. The cultures were grown for 24 hours, and 2.5 mL of each culture were used to inoculate 50 mL of fermentation medium (2% ammonium sulfate, 2% potassium phosphate, 0.1% NaCl, 0.6% MgSO4.7H2O, 0.4% yeast extract, 1 mL mineral solution [FeSO4.7H2O 0.028%, ZnSO4.7H2O 0.029%, CuSO4.5H2O 0.008%, Na2MoO4.2H2O 0.024%, CoCl2.6H2O 0.024%, MnSO4.H2O 0.017%, HCl 1 mL], 0.5 mL 50% glucose, 1.5 mL vitamin solution [biotin 0.001%, Ca-pantothenate 0.012%, inositol 0.06%, pyridoxine-HCl 0.012%, thiamine-HCl 0.012%], and 0.5 mL 10% CaCl2) in a 250 mL baffled flask. The cultures were grown at 28° C. After 16 hours of incubation, the cultures were fed 3.6 mL of 50% glucose and 0.667 mL of 12.5% yeast extract. […] An aliquot of the organic phase was analyzed by gas chromatography and the amount of valencene produced was quantified by calculating the area under the peak representing valencene. […]
# Table 6a below provides product distribution profiles including the amount of valencene produced from the shake flask assay, as determined by gas chromatography, of CVS 277 compared to two strains that produce EGVS in the ALX11-30 strain (as described in Example 3).
# [2] = Steady state kinetic analysis of His-tag purified valencene synthases; type: biochemical
# Method: In this example, the activity of E. glaciale valencene synthase (EgVS; SEQ ID NO:1) and of the citrus valencene synthase designated V277 (SEQ ID NO:31) were evaluated by steady state kinetic analysis. To compare the activities of these enzymes in vitro, the valencene synthases were Histidine-tagged at the C-terminus, expressed in E. coli, purified by nickel chelate chromatography, and evaluated for activity by steady state kinetic analysis. […] T=30C. Detection: GC/MS-SIM.
Molecule,Repellent and insecticide effect (ticks and mosquitoes),Valencene production in yeast compared to the CVS synthase ([1]; listed as EG synthase),Valencene production in yeast compared to the CVS synthase ([1]; listed as EVS),Turnover compared with valencene synthase V277 [2],"Total and specific activity compared with valencene synthase V277 ([2]; side-by-side comparison, FIG. 6)"
"C=C(C)[C@@H]1CCC2=CC(=O)C[C@@H](C)[C@]2(C)C1 [nootkatone, 4,4a,5,6,7,8-hexahydro-6-isopropenyl-4,4-a-dimethyl-2(3H)-naphthalenone]",effective repellent and insecticide,–,–,–,–
"EgVS: Eryngium glaciale valencene synthase, amino acid sequence SEQ ID NO:1; His-tagged at the C-terminus for kinetics (protein, C-terminal His tag; Eryngium glaciale; valencene synthase protein, His-tagged at the C-terminus for kinetics) MSLNVLSTSGSAPTTKSSEITRRSANYHPSLWGDKFLEYSSPDHLKNDSFTEKKHEQLKEEVKKMLVETVQKPQQQLNLINEIQRLGLSYLFEPEIEAALQEISVTYDEFCCSTDADDLHNVALSFRILREHGHNVSSDVFQKFMDSNGKLKDYLVNDARGLLSLYEATHFRVHNDDKLEELLSVTTSRLEHLKSHVKYPLEDEISRALKHPLHKELNRLGARYYISIYEKFDSHNKLLLEFAKLDFNRLQKMYQHELAHLTRWWKDLDFTNKLPFARDRIVEGYFWILGMYFEPERKDVREFLNRVFALITVVDDTYDVYGTFKELLLFTDAIERWGTSDLDQLPGYMRIIYQALMDVYNQMEEKLSMKADCPTYRLEFAIETVKAMFRSYLEEARWSKEHYIPSMEEYMTVALVSVGYKTILTNSFVGMGDIATREVFEWVFNSPLIIRASDLIARLGDDIGGHEEEQKKGDAATAIECYIKENHVTKHEAYDEFQKQIDNAWKDLNKEALRPFPVPMTFITRVVHFTRAIHVIYADFSDGYTRSDKAIRGYITSLLVDPIPL",–,more than twice the amount of valencene,significantly greater,turned over significantly more times,dramatically higher total and specific activity; also recorded: exhibits greater activity
